From patent US20120208744A1, “ANTI-MICROBIAL AGENTS AND COMPOSITIONS AND METHODS OF PRODUCTION AND USE THEREOF” (The Penn State Research Foundation, priority 2011, published 2012)

Test system: E. coli
Assay: Spot titer assay (sensitivity to TonB-dependent colicins and bacteriophage)
Format: cell-based, Escherichia coli
Conditions: three platings
Description: Activity assays: Spot titer assays were performed. Initial rates of [^55Fe]-ferrichrome uptake were determined.
Spot titers, which are capable of detecting very low levels of TonB activity, measure sensitivity to colicins and bacteriophage that enter and subsequently kill E. coli via the TonB system. […] Consistent with their insensitivity to phage and colicins, the other 13 deletion variants supported no iron transport.

[1] = strain RA1017 (ΔExbBD, ΔTolQRA)
[2] = strain RA1017/pKP724 (ExbB, ExbDΔ132-141)
[3] = strain RA1017/pKP752 (ExbB, ExbDΔ102-111)
[4] = strain RA1017/pKP753 (ExbB, ExbDΔ92-101)
[5] = strain RA1017/pKP754 (ExbB, ExbDΔ82-91)
[6] = strain RA1017/pKP755 (ExbB, ExbDΔ72-81)
[7] = strain RA1017/pKP756 (ExbB, ExbDΔ62-71)
[8] = strain RA1017/pKP757 (ExbB, ExbDΔ52-61)
[9] = strain RA1017/pKP758 (ExbB, ExbDΔ32-41)
[10] = strain RA1017/pKP759 (ExbB, ExbDΔ22-31)
[11] = strain RA1017/pKP760 (ExbB, ExbDΔ12-21)
[12] = strain RA1017/pKP762 (ExbB, ExbDΔ42-51)
[13] = strain RA1017/pKP763 (ExbB, ExbDΔ112-121)
[14] = strain RA1017/pKP764 (ExbB, ExbDΔ122-131)

Measured: Susceptibility: highest five-fold dilution of a standard colicin preparation that provided an evident zone of clearing on a cell lawn

B1: Colicin B: TonB-dependent colicin; toxin that enters and kills E. coli via the TonB system; standard colicin preparation (protein, UniProt P05819 2-511, looked up)
Colicin-B: SDNEGSVPTEGIDYGDTMVVWPSTGRIPGGDVKPGGSSGLAPSMPPGWGDYSPQGIALVQSVLFPGIIRRIILDKELEEGDWSGWSVSVHSPWGNEKVSAARTVLENGLRGGLPEPSRPAAVSFARLEPASGNEQKIIRLMVTQQLEQVTDIPASQLPAAGNNVPVKYRLTDLMQNGTQYMAIIGGIPMTVPVVDAVPVPDRSRPGTNIKDVYSAPVSPNLPDLVLSVGQMNTPVRSNPEIQEDGVISETGNYVEAGYTMSSNNHDVIVRFPEGSGVSPLYISAVEILDSNSLSQRQEAENNAKDDFRVKKEQENDEKTVLTKTSEVIISVGDKVGEYLGDKYKALSREIAENINNFQGKTIRSYDDAMSSINKLMANPSLKINATDKEAIVNAWKAFNAEDMGNKFAALGKTFKAADYAIKANNIREKSIEGYQTGNWGPLMLEVESWVISGMASAVALSLFSLTLGSALIAFGLSATVVGFVGVVIAGAIGAFIDDKFVDELNHKIIK
T, T, T: [1] | [2] | [3] | [4] | [5] | [6] | [7] | [8] | [9] | [10] | [11] | [12] | [13] | [14]

B2: Colicin Ia: TonB-dependent colicin; standard colicin preparation used in spot titers (protein, UniProt P06716 1-626, looked up)
Colicin-Ia: MSDPVRITNPGAESLGYDSDGHEIMAVDIYVNPPRVDVFHGTPPAWSSFGNKTIWGGNEWVDDSPTRSDIEKRDKEITAYKNTLSAQQKENENKRTEAGKRLSAAIAAREKDENTLKTLRAGNADAADITRQEFRLLQAELREYGFRTEIAGYDALRLHTESRMLFADADSLRISPREARSLIEQAEKRQKDAQNADKKAADMLAEYERRKGILDTRLSELEKNGGAALAVLDAQQARLLGQQTRNDRAISEARNKLSSVTESLNTARNALTRAEQQLTQQKNTPDGKTIVSPEKFPGRSSTNHSIVVSGDPRFAGTIKITTSAVIDNRANLNYLLSHSGLDYKRNILNDRNPVVTEDVEGDKKIYNAEVAEWDKLRQRLLDARNKITSAESAVNSARNNLSARTNEQKHANDALNALLKEKENIRNQLSGINQKIAEEKRKQDELKATKDAINFTTEFLKSVSEKYGAKAEQLAREMAGQAKGKKIRNVEEALKTYEKYRADINKKINAKDRAAIAAALESVKLSDISSNLNRFSRGLGYAGKFTSLADWITEFGKAVRTENWRPLFVKTETIIAGNAATALVALVFSILTGSALGIIGYGLLMAVTGALIDESLVEKANKFWGI
T, T, T: [1] | [2] | [3] | [4] | [5] | [6] | [7] | [8] | [9] | [10] | [11] | [12] | [13] | [14]

B3: Colicin M: TonB-dependent colicin; standard colicin preparation used in spot titers (protein, UniProt P05820 1-271, looked up)
Colicin-M: METLTVHAPSPSTNLPSYGNGAFSLSAPHVPGAGPLLVQVVYSFFQSPNMCLQALTQLEDYIKKHGASNPLTLQIISTNIGYFCNADRNLVLHPGISVYDAYHFAKPAPSQYDYRSMNMKQMSGNVTTPIVALAHYLWGNGAERSVNIANIGLKISPMKINQIKDIIKSGVVGTFPVSTKFTHATGDYNVITGAYLGNITLKTEGTLTISANGSWTYNGVVRSYDDKYDFNASTHRGIIGESLTRLGAMFSGKEYQILLPGEIHIKESGKR
T, T, T: [1] | [2] | [3] | [4] | [5] | [6] | [7] | [8] | [9] | [10] | [11] | [12] | [13] | [14]
